Holding throughout (test): cell-based or functional assay
Assay [1] deals with T1, human glucagon-like peptide 1 receptor (GLP-1R) (human, UniProt P43220 24-463).
Assay [2] addresses T2, human glucagon receptor (GCGR) (human, UniProt P47871 26-477).
The target in assay [3] is T1, human glucagon-like peptide 1 receptor …. This is another data set of the same source.
For assay [4], the target named is T2, human glucagon receptor (GCGR). This is another data set of the same source.

Positions of bridges follow the written chain, without caps; N, C: chain ends. Non-standard residues stand in square brackets, D forms with d. No end group written: not given here. Bph = 4,4'-bis(methyl)biphenyl crosslink between two cysteines (CL-1)

T2 sequence (P47871 26-477): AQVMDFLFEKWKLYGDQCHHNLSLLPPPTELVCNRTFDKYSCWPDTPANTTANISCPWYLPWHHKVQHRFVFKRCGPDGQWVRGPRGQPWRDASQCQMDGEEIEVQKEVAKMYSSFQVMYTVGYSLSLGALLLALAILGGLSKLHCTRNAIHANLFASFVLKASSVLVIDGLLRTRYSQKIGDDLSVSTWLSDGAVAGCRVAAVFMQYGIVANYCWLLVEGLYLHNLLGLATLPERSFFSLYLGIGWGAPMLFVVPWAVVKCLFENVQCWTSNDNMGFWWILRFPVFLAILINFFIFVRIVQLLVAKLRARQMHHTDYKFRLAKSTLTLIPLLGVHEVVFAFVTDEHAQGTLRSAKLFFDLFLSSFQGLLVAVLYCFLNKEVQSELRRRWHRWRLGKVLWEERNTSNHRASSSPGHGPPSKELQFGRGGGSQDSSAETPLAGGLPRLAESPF

Regarding H[dS]QGTFTSDYSKYLDECAAKEFICWLMNTKRNRNNIA-NH2 (linker 17-24 via Bph) [peptide 9], the entries for the “fold increase in activity against linear peptide 7, CRE-luciferase reporter assay” value in assay [1] and in assay [2] were 80 fold and 40 fold, respectively. Also, the “Agonist activity (nM), EC50, CRE-luciferase reporter in HEK293 cells overexpressing the receptor” value (shortened to “Agonist activity (nM), EC50”) in assay [3] was found to be 0.2 nM; in assay [4], 0.7 nM.
In the case of H[dS]QGTFTSDYSKYLDSRRAQ[dC]FVQWLMCTKRNRNNIA-NH2 (cysteine pairing not given here) [peptide 2], the “Agonist activity (nM), EC50” value in assay [3] is above 2000 nM; in assay [4] it was above 1000 nM.
Regarding H[dS]QGTFTSDYSKYLDSCRAQDFVCWLMNTKRNRNNIA-NH2 (cysteine pairing not given here) [peptide 4], the “fold increase in activity against peptide 1, CRE-luciferase reporter assay” value in assay [1] and in assay [2] was around 2 fold in each case. The “Agonist activity (nM), EC50” value is around 500 nM in assay [3] and 30 nM in assay [4].
As to H[dS]QGTFTSDYSKYLDECAVRLFICWLMNTKRNRNNIA-NH2 (cysteine pairing not given here) [peptide 8], the “fold higher potency against peptide 5, CRE-luciferase reporter assay” value in assay [1] is above 80 fold. Besides, the “Agonist activity (nM), EC50” value in assay [4] was 1000 nM.
On to H[dS]QGTFTSDYSKYLDECAAKEFICWLMNTKRNRNNIA-NH2 (cysteine pairing not given here) [peptide 7], for which the “fold higher potency against peptide 5, CRE-luciferase reporter assay” value in assay [1] was above 80 fold. In addition, in assay [4], the “Agonist activity (nM), EC50” value was 30 nM.
As to H[dS]QGTFTSDYSKYLDS[dC]RAQDFVCWLMNTKRNRNNIA-NH2 (linker 17-24 via Bph) [peptide 3], the “fold increase in activity against linear peptide 1, CRE-luciferase reporter assay” value in assay [1] came out at 2 fold; in assay [2] it was 16 fold. Further, the “Agonist activity (nM), EC50” value was around 500 nM in assay [3] and 3 nM in assay [4].
In the case of H[dS]QGTFTSDYSKYLDECRAQDFVCWLMNTKRNRNNIA-NH2 (cysteine pairing not given here) [peptide 5], the “Agonist activity (nM), EC50” value in assay [3] was around 400 nM.
